Patent US20150283214A1 (UNIVERSITY OF ROCHESTER, published 2015)

Key:
Human plasma fibronectin = molecular target: T1, Human plasma fibronectin (human, UniProt P02751 32-2477, Alexa^488 label where used as FN^488); test: Alexa488-fibronectin added to cell-free wells coated with 400 nM mimetic; fluorescence after 20 h
T1 construct: Used coated on plastic at 10 nM, or soluble at 10 µg/ml, unlabeled or Alexa488-labeled; also called full-length fibronectin; FN

[1] = molecular target: T2, α5β1 integrin on mouse embryonic fibronectin-null fibroblasts (mouse, UniProt P11688 45-1053; P09055 21-798); test: immunofluorescence of α5 integrin clustering in FN-null MEFs adherent for 4 h to coated substrate
T2 construct: whole, on cells; Endogenous integrin on FN-null MEFs; also called α5β1 integrins; a5β1 integrin
Procedure: FIGS. 16A-16C show substrate-dependent ligation and clustering of α5β1 integrins. FN-null MEFs were seeded at a density of 2.5×10³ cells/cm² (FIG. 16A) or 3×10⁴ cells/cm² (FIG. 16B) onto tissue culture plates precoated with 400 nM of the various fibronectin matrix mimetics or 10 nM full-length fibronectin and allowed to adhere and spread for 4 h. In FIG. 16A, cells were processed for immunofluorescence microscopy and stained using antibodies against α5 integrin and vinculin. Images represent 1 of 3 experiments. Bar=10 μm. In FIG. 16B, cell surface proteins bound to the adhesive substrates were cross-linked using bis(sulfosuccinimidyl)suberate (BS³). Unbound proteins were extracted and […]. α5 integrins were analyzed by immunoblotting.
The preceding Examples therefore indicate that upon adhesion to GST/III1H,8-10, α5β1 integrins preferentially engage the adhesive substrate instead of soluble fibronectin, thus inhibiting the initiation of the matrix assembly process. To assess α5β1 integrin clustering in response to substrate adhesion, FN-null MEFs were allowed to adhere and spread for 4 h on plates pre-coated with saturating densities of matrix mimetics in the absence of soluble fibronectin. α5β1 integrins were visualized by immunofluorescence microscopy. […]

[2] = molecular target: T3, FITC-labeled type I collagen (rat, UniProt P02454 152-1207; P02466 86-1125, FITC label); test: FITC-collagen I added to cell-free, fibronectin-free wells coated with 400 nM mimetic; fluorescence after 20 h
T3 construct: also called FITC-collagen I; collagen I
T3 sequence (P02454 152-1207, chain 1 of 2): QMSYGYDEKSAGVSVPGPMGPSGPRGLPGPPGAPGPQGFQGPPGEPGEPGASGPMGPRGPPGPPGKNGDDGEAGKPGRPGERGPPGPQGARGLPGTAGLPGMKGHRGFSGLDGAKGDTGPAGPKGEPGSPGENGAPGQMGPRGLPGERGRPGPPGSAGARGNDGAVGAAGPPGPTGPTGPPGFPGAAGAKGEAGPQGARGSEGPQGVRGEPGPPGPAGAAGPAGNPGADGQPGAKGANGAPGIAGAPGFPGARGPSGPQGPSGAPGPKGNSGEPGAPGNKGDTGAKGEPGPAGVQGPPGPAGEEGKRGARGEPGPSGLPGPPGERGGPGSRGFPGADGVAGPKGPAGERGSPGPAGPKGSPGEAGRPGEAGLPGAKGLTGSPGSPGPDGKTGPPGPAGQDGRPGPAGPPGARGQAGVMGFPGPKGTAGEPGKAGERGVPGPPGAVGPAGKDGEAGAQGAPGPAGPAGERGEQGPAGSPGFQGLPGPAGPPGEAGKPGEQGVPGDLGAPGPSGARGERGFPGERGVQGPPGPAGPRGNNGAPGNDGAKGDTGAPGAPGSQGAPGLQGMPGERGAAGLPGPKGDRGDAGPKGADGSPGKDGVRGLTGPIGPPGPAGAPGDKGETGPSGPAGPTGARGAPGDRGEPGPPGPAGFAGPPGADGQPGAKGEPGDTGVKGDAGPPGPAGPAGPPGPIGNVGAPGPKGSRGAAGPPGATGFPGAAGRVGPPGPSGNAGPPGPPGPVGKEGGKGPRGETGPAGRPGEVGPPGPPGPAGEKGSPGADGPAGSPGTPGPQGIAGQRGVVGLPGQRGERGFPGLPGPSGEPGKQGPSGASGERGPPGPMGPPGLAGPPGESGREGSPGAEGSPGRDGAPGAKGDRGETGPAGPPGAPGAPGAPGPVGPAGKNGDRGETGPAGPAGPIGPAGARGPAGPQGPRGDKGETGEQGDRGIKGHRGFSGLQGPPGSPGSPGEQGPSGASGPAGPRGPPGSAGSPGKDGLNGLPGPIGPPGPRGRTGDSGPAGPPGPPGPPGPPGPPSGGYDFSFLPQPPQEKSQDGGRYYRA
T3 sequence (P02466 86-1125, chain 2 of 2): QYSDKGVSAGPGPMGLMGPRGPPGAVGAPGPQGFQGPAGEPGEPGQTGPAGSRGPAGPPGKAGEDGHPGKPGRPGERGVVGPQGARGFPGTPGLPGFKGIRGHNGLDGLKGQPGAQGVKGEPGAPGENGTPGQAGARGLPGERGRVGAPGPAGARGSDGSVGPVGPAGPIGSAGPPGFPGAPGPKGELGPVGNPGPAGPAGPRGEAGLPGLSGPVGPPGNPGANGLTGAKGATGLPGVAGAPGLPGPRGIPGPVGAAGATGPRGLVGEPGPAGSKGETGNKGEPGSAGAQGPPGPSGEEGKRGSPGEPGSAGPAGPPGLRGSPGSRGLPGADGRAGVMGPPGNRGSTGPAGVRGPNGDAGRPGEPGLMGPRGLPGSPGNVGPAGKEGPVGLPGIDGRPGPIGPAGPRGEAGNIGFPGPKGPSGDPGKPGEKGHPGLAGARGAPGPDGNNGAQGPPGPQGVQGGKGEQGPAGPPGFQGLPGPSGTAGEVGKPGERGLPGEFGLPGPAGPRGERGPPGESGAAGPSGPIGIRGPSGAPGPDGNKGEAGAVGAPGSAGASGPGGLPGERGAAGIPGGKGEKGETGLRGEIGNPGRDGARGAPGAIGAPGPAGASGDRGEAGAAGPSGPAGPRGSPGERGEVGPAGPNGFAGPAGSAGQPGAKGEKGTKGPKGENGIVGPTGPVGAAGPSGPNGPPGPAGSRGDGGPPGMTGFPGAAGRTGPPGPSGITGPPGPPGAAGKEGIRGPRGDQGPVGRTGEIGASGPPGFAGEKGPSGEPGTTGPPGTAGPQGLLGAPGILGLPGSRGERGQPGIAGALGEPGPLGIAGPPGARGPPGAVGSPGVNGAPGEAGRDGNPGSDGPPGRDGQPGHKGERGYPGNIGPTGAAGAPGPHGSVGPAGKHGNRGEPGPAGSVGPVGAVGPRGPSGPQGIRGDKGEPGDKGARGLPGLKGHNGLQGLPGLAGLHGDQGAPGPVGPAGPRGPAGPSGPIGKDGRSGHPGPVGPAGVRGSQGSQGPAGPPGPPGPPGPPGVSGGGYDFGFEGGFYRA
Procedure: FIGS. 14A-14C show collagen I deposition by cells adherent to matrix mimetics. FN-null MEFs were seeded (3.0×10⁴ cells/cm²) on tissue culture plates pre-coated with matrix mimetics (400 nM). Four hours after seeding, cells were treated with fibronectin (10 μg/ml) and FITC-collagen I (10 μg/ml) for 20 h. In FIG. 14A, control wells received either FITC-collagen I only (+cell, −FN) or FITC collagen I in the absence of both cells and fibronectin (−cells, −FN). […] In FIG. 14B, cells were processed for immunofluorescence microscopy and stained using an antibody against fibronectin. Images represent 1 of 3 experiments. Bar=10 μm. Four hours after seeding, cells were treated with fibronectin (10 μg/ml) and FITC-collagen I ([…]) in the presence of either R1R2 (250 nM) or FNIII11C (250 nM).
The deposition of collagen I into the ECM is dependent on the co-assembly of a fibronectin matrix (Sottile et al., “Fibronectin Polymerization Regulates the Composition and Stability of Extracellular Matrix Fibrils and Cell-Matrix Adhesions,” Mol. Biol. Cell. 13(10):3546-3559 (2002), which is hereby incorporated by reference in its entirety). […] FITC-collagen I deposition was quantified 20 h after fibronectin and collagen addition.

T1 sequence (P02751 other isoform, or with tags, fused parts or gaps): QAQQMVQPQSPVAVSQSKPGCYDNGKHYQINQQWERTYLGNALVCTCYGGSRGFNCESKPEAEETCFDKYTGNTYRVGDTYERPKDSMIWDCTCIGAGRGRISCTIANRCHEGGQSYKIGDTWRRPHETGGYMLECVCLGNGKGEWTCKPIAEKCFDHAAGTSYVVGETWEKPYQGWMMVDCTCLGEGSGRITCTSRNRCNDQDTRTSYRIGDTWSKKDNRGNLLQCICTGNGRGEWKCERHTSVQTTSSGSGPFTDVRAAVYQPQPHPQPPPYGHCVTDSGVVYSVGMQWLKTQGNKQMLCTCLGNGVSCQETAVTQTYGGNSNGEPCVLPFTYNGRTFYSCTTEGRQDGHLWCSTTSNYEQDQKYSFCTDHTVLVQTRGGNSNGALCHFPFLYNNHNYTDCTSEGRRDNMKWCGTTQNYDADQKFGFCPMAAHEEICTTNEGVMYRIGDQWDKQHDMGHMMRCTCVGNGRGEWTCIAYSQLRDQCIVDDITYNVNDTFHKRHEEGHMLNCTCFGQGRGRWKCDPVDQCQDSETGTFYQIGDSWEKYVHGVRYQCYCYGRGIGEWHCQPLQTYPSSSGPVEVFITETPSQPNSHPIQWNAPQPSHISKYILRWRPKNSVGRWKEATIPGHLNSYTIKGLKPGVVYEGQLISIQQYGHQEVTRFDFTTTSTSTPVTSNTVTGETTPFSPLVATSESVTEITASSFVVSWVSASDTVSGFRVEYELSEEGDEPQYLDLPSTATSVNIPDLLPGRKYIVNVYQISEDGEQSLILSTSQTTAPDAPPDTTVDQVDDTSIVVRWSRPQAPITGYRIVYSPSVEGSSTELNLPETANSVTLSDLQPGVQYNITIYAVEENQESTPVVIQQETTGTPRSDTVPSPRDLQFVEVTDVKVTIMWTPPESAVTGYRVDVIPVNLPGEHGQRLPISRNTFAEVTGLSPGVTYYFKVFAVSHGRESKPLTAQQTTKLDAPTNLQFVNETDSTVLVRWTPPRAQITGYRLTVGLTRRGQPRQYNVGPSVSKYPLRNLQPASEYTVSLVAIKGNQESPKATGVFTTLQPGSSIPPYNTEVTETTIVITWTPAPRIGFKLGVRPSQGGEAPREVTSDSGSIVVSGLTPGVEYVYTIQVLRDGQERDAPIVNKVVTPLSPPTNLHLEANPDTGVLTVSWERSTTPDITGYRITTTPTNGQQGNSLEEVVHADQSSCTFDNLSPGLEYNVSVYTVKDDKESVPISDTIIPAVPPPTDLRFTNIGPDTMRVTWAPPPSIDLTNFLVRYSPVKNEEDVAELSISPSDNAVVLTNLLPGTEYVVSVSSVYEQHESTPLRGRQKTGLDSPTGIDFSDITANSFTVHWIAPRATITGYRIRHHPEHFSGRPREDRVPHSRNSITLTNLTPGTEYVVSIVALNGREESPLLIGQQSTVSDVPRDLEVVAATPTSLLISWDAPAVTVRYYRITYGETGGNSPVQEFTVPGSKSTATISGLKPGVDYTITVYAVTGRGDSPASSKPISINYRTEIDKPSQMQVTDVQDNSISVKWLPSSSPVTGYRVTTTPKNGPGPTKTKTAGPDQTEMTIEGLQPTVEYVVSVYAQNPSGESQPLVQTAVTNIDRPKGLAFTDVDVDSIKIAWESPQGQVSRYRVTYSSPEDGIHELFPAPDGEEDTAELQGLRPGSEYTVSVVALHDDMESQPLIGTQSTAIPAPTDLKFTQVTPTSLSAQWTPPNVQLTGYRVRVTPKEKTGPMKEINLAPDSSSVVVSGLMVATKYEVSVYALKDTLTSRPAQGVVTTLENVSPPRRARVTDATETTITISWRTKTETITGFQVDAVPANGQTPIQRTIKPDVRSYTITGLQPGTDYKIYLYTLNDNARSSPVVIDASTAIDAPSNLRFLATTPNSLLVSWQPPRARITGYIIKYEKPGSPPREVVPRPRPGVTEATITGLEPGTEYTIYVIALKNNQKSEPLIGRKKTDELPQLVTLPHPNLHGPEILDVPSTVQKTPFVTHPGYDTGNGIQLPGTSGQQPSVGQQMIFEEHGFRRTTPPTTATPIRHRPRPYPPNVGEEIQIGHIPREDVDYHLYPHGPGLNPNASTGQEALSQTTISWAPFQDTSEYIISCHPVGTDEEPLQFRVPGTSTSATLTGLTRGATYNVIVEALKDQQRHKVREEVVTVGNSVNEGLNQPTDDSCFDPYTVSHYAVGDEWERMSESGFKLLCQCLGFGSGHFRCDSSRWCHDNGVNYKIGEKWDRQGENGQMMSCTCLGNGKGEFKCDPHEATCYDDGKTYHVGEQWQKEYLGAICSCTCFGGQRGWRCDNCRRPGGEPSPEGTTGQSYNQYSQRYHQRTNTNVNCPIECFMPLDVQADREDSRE

binding result (Human plasma fibronectin) | binding result [1] | binding result [2] | Binder
no binding (tested: 10 µg/ml) | no binding (tested: 400 nM coating) | no binding (tested: 10 µg/ml) | GST/III1H,8^RGD (other, Coated on tissue culture plastic in the assays; also called FNIII1H,8^RGD; not shown: glutathione S-transferase (GST) tag encoded by vector pGEX-2T (Amersham Biosciences)) IQWNAPQPSHISKYILRWRPKNSVGRWKEATIPGHLNSYTIKGLKPGVVYEGQLISIQQYGHQEVTRFDFTTTSTSTAVPPPTDLRFTNIGPDTMRVTWAPPPSIDLTNFLVRYSPVKNEEDVAELSISPSDNAVVLTNLLPGTEYVVSVSSVYGRGDSPASSTPLRGRQKT
no binding (tested: 10 µg/ml) | – | no binding (tested: 10 µg/ml) | GST/III1H,8,10 (other, Coated on tissue culture plastic in the assays; also called FNIII1H,8,10; not shown: glutathione S-transferase (GST) tag encoded by vector pGEX-2T (Amersham Biosciences)) IQWNAPQPSHISKYILRWRPKNSVGRWKEATIPGHLNSYTIKGLKPGVVYEGQLISIQQYGHQEVTRFDFTTTSTSTAVPPPTDLRFTNIGPDTMRVTWAPPPSIDLTNFLVRYSPVKNEEDVAELSISPSDNAVVLTNLLPGTEYVVSVSSVYEQHESTPLRGRQKTVSDVPRDLEVVAATPTSLLISWDAPAVTVRYYRITYGETGGNSPVQEFTVPGSKSTATISGLKPGVDYTITVYAVTGRGDSPASSKPISI
